How the values were obtained:
[1] = target: human purified airway mucins (purified from induced sputum of five asthmatic donors, pooled); assay: plate binding assay: purified mucins coated, FLAG-ITLN-1 with heparin (150 pg/mL as printed) in the binding buffer
[2] = target: human purified airway mucins (purified from induced sputum of five asthmatic donors, pooled); assay: plate binding assay: purified mucins coated, FLAG-ITLN-1 with dextran sulfate (150 pg/mL as printed) in the binding buffer

FLAG-tagged recombinant ITLN-1 (Sigma, SRP8047) (from UniProt Q8WWA0 19-298) (ligand)
percent decrease of binding in the presence of heparin [1]: 51.9% | percent decrease of binding in the presence of dextran sulfate [2]: 74%

Source: patent publication US20240239901A1
